Paper PMC9352680, “A comprehensive thermodynamic model for RNA binding by the Saccharomyces cerevisiae Pumilio protein PUF4”

Biological target: T1, PUF4 RNA-binding domain (Saccharomyces cerevisiae, UniProt P25339 537-888)
T1 sequence: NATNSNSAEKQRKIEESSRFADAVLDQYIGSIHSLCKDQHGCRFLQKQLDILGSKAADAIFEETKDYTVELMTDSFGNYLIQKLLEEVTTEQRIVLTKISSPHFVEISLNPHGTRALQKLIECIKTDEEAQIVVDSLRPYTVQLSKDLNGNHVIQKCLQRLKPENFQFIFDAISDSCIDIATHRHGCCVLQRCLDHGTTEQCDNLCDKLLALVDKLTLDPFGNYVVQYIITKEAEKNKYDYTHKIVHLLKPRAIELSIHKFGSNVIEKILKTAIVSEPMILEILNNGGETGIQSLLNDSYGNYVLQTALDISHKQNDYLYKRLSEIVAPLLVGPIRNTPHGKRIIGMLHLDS
Experiment: Mg; RNA-MaP; 20 mM Na-HEPES pH 7.4, 30 mM KOAc, 0.75 mM MgCl2, 0.1% Tween-20, 5% glycerol, 0.1 mg/mL BSA, 2 mM DTT; 25 C; 0.0125-409.6 nM protein
Details: tags: N-His6-TEV cleaved; C-SNAP kept, Cy3B-labelled; label: tethered on chip by stalled RNA polymerase

B1: Ia_S1_P4E.1_K4.1_C4.1_H4.1_[T3C]_A4.1_F4.1_T4.1 (ssRNA)
RNA: UCUCUUUGCAUAUUAUCUCUU
- Kd: 76.5 nM

B2: Ib_S1_P4E.1_K4.1_C4.1_H4.1_[A4G]_A4.1_F4.1_[A9T]_T4.1 (ssRNA)
RNA: UCUCUUUGUGUAUUUUCUCUU
- Kd: 33.2 nM

B3: Ic_S4_P4E.1_K4.1_C4.1_H4.1_A4.1_[T5G]_[A6T]_[T7G]_F4.1_[T8C]_[A9C]_T4.1 (ssRNA)
RNA: UUUGACAACUGAUCGUUCUUUCUUGUAGUGCCUUCUUUCUCGAUCAGUUGUCUUU
- Kd: 1240 nM

B4: Ic_S4_P4E.1_K4.1_C4.1_H4.1_A4.1_[T5G]_[A6T]_[T7G]_F4.1_T4.1 (ssRNA)
RNA: UUUGACAACUGAUCGUUCUUUCUUGUAGUGUAUUCUUUCUCGAUCAGUUGUCUUU
- Kd: 12.1 nM

B5: Ic_S4_P4E.1_K4.1_C4.1_H4.1_A4.1_[T5C]_[A6G]_[T7G]_F4.1_[A9C]_T4.1 (ssRNA)
RNA: UUUGACAACUGAUCGUUCUUUCUUGUACGGUCUUCUUUCUCGAUCAGUUGUCUUU
- Kd: 514 nM

B6: Ic_S4_P4E.1_K4.1_C4.1_H4.1_A4.1_[T5C]_[A6G]_[T7G]_F4.1_[A9T]_T4.1 (ssRNA)
RNA: UUUGACAACUGAUCGUUCUUUCUUGUACGGUUUUCUUUCUCGAUCAGUUGUCUUU
- Kd: 158 nM

B7: Ic_S4_P4E.1_K4.1_C4.1_H4.1_A4.1_[T5C]_[A6G]_F4.1_[T8A]_[A9C]_T4.1 (ssRNA)
RNA: UUUGACAACUGAUCGUUCUUUCUUGUACGUACUUCUUUCUCGAUCAGUUGUCUUU
- Kd: 316 nM

B8: Ic_S4_P4E.1_K4.1_C4.1_H4.1_A4.1_[T5C]_[A6G]_F4.1_[T8G]_[A9T]_T4.1 (ssRNA)
RNA: UUUGACAACUGAUCGUUCUUUCUUGUACGUGUUUCUUUCUCGAUCAGUUGUCUUU
- Kd: 33.7 nM

B9: Ic_S4_P4E.1_K4.1_C4.1_H4.1_A4.1_[T5G]_[A6T]_[T7C]_F4.1_[T8C]_[A9C]_T4.1 (ssRNA)
RNA: UUUGACAACUGAUCGUUCUUUCUUGUAGUCCCUUCUUUCUCGAUCAGUUGUCUUU
- Kd: 514 nM

B10: Ic_S4_P4E.1_K4.1_C4.1_H4.1_A4.1_[T5G]_[A6T]_[T7G]_F4.1_[T8C]_[A9T]_T4.1 (ssRNA)
RNA: UUUGACAACUGAUCGUUCUUUCUUGUAGUGCUUUCUUUCUCGAUCAGUUGUCUUU
- Kd: 467 nM

B11: Ic_S4_P4E.1_K4.1_C4.1_H4.1_A4.1_[T5G]_[A6T]_[T7G]_F4.1_[A9C]_T4.1 (ssRNA)
RNA: UUUGACAACUGAUCGUUCUUUCUUGUAGUGUCUUCUUUCUCGAUCAGUUGUCUUU
- Kd: 238 nM

B12: Ic_S4_P4E.1_K4.1_C4.1_H4.1_A4.1_[T5C]_[A6G]_[T7C]_F4.1_[T8G]_[A9T]_T4.1 (ssRNA)
RNA: UUUGACAACUGAUCGUUCUUUCUUGUACGCGUUUCUUUCUCGAUCAGUUGUCUUU
- Kd: 400 nM

B13: Ic_S4_P4E.1_K4.1_C4.1_H4.1_A4.1_[T5G]_[A6T]_[T7A]_F4.1_[T8C]_[A9T]_T4.1 (ssRNA)
RNA: UUUGACAACUGAUCGUUCUUUCUUGUAGUACUUUCUUUCUCGAUCAGUUGUCUUU
- Kd: 285 nM

B14: Ic_S4_P4E.1_K4.1_C4.1_H4.1_A4.1_[T5G]_[A6T]_[T7A]_F4.1_[A9C]_T4.1 (ssRNA)
RNA: UUUGACAACUGAUCGUUCUUUCUUGUAGUAUCUUCUUUCUCGAUCAGUUGUCUUU
- Kd: 173 nM

B15: Ic_S4_P4E.1_K4.1_C4.1_H4.1_A4.1_[T5C]_[A6G]_[T7C]_F4.1_[T8A]_[A9G]_T4.1 (ssRNA)
RNA: UUUGACAACUGAUCGUUCUUUCUUGUACGCAGUUCUUUCUCGAUCAGUUGUCUUU
- Kd: 1470 nM

B16: Ic_S4_P4E.1_K4.1_C4.1_H4.1_A4.1_[T5G]_[A6T]_[T7C]_F4.1_[T8G]_[A9T]_T4.1 (ssRNA)
RNA: UUUGACAACUGAUCGUUCUUUCUUGUAGUCGUUUCUUUCUCGAUCAGUUGUCUUU
- Kd: 616 nM

B17: Ic_S4_P4E.1_K4.1_C4.1_H4.1_A4.1_[T5G]_[A6T]_[T7C]_F4.1_[T8C]_[A9T]_T4.1 (ssRNA)
RNA: UUUGACAACUGAUCGUUCUUUCUUGUAGUCCUUUCUUUCUCGAUCAGUUGUCUUU
- Kd: 194 nM

B18: Ic_S4_P4E.1_K4.1_C4.1_H4.1_A4.1_[T5C]_[A6G]_F4.1_[A9T]_T4.1 (ssRNA)
RNA: UUUGACAACUGAUCGUUCUUUCUUGUACGUUUUUCUUUCUCGAUCAGUUGUCUUU
- Kd: 11.9 nM

B19: Ic_S4_P4E.1_K4.1_C4.1_H4.1_A4.1_[T5G]_[A6T]_F4.1_[T8G]_[A9T]_T4.1 (ssRNA)
RNA: UUUGACAACUGAUCGUUCUUUCUUGUAGUUGUUUCUUUCUCGAUCAGUUGUCUUU
- Kd: 291 nM

B20: Ic_S4_P4E.1_K4.1_C4.1_H4.1_A4.1_[T5C]_[A6G]_[T7C]_F4.1_[T8A]_T4.1 (ssRNA)
RNA: UUUGACAACUGAUCGUUCUUUCUUGUACGCAAUUCUUUCUCGAUCAGUUGUCUUU
- Kd: 657 nM

B21: Ic_S4_P4E.1_K4.1_C4.1_H4.1_A4.1_[T5C]_[A6G]_[T7A]_F4.1_[T8C]_T4.1 (ssRNA)
RNA: UUUGACAACUGAUCGUUCUUUCUUGUACGACAUUCUUUCUCGAUCAGUUGUCUUU
- Kd: 436 nM

B22: Ic_S4_P4E.1_K4.1_C4.1_H4.1_A4.1_[T5G]_[A6T]_[T7A]_F4.1_[T8A]_[A9C]_T4.1 (ssRNA)
RNA: UUUGACAACUGAUCGUUCUUUCUUGUAGUAACUUCUUUCUCGAUCAGUUGUCUUU
- Kd: 977 nM

B23: Ic_S4_P4E.1_K4.1_C4.1_H4.1_A4.1_[T5G]_[A6T]_F4.1_[T8C]_[A9T]_T4.1 (ssRNA)
RNA: UUUGACAACUGAUCGUUCUUUCUUGUAGUUCUUUCUUUCUCGAUCAGUUGUCUUU
- Kd: 96 nM

B24: Ic_S4_P4E.1_K4.1_C4.1_H4.1_A4.1_[T5C]_[A6G]_[T7A]_F4.1_[T8C]_[A9C]_T4.1 (ssRNA)
RNA: UUUGACAACUGAUCGUUCUUUCUUGUACGACCUUCUUUCUCGAUCAGUUGUCUUU
- Kd: 994 nM
